Reference: PMC4895224

Molecular target: 2-Cysteine peroxiredoxin (BxPrx) of Bursaphelenchus xylophilus (Bursaphelenchus xylophilus (endogenous in the nematode))
Test: SDS-PAGE and immunoblot of the inter-molecular dimer; nematodes incubated in 0, 1 and 5 mM H2O2 for 5 min, harvested in 20% TCA, resuspended in SDS-PAGE loading buffer, 12% SDS-PAGE, Western blot with anti-BxPrx serum; 80 ug protein extract per lane

With “2-Cysteine peroxiredoxin (BxPrx) of Bursaphelenchus xylophilus (natural protein)” the stoichiometry N was 2.
